Assay [1] addresses T1, human NKp46 (full length, on cells) (human, UniProt O76036 22-304). The experiment in a line: flow cytometry on human NKp46-CHOK1 cells. The procedure: (§1) The stable human NKp46-CHOK1 and cynomolgus monkey NKp46-CHOK1 cell lines obtained in Example 2 were cultured, the cells were digested with 0.25% pancreatic enzyme EDTA for about 5 minutes, and the digestion was terminated with the complete medium. After centrifugation at 1,500 rpm for 5 minutes, the supernatant was discarded, the precipitated cells were resuspended with PBS containing 1% BSA and counted. The cell density was adjusted to 1E6/mL and seeded in a corning-3799 96-well culture plate at 100 μL/well. Aftering centrifuging at 1,500 rpm for 5 minutes, the supernatant was discarded and the precipitate was set aside at 4° C. The antibody solutions were prepared with PBS containing 1% BSA, wherein the antibody solution has an initial concentration was 100 nM, then diluted in 10-fold to obtain 7 gradients: 10⁻⁴ nM, 10⁻³ nM, 10⁻² nM, 10⁻¹ nM, […], and 10² nM. The prepared antibody solutions were used to resuspend the cells, 100 μL/well. The resuspended cell culture plates were incubated in a 4° C. freezer for 1 h. After centrifugation at 1500 rpm for 5 minutes, the supernatant was discarded. The precipitate was washed with 160 μL of PBS containing 1% BSA, the supernatant was discarded, and the cells were stored for later use.
(§2) The Secondary antibody (goat anti human IgG Fc PE) solution was prepared with PBS containing 1% BSA, and diluted 1:200. The cells were resuspended with the prepared secondary antibody solution, 100 μL/well, incubated in a 4° C. freezer for 0.5 h. After centrifugation at 1,500 rpm for 5 minutes, the supernatant was discarded, the precipitated cells were washed with 160 μL of PBS containing 1% BSA, the supernatant was discarded, the cells were resuspended with 100 μL of PBS containing 1% BSA, and filtered in 300-mesh gauze. The mean fluorescence intensity of antibody binding to cells was then analyzed on a flow cytometer. The FCS file was exported from the flow cytometer, the mean fluorescence intensity (hereinafter referred to as MFI) of PE channel was analyzed with Flowjo software, and the mean fluorescence intensity obtained was introduced into the Graphpad to analyze the half binding concentration (hereinafter referred to as EC₅₀) and the top mean fluorescence intensity (Top MFI) of the antibody and the cell.
(In flow cytometry, cells or beads pass a laser one at a time.)

Assay [2] concerns the target cynomolgus monkey NKp46 (full length, on cells) (cynomolgus monkey) (UniProt Q95JB9). Put plainly: flow cytometry on cynomolgus monkey NKp46-CHOK1 cells.
Assay [3] shares this target. The description is as above. The source holds these as a separate data set.
Assay [4] addresses T2, cynomolgus monkey NKp46 (full length, on cells) (cynomolgus monkey, UniProt Q95JB9 22-306).
T2 construct: also called cynomolgus monkey NKp46-CHOK1; cynomolgus NKp46-CHOK1
The assay is described as above. The procedure: as §1, §2

Assay [5] has as its target T3, Cynomolgus monkey NKp46 for immunization, screening, and testing (Kactus, NKP-CM146) (cynomolgus monkey, UniProt Q95JB9 22-254).
T3 construct: Bought protein; also called monkey NKp46 antigen protein; cynomolgus monkey NKp46 antigen
The experiment in a line: SPR (Biacore 8K), antibody captured on anti-human Fc, NKp46 as analyte, 1:1 fit. As for the experimental part: Cynomolgus monkey NKp46 was diluted in two-fold to a serial concentration (400 nM-3.125 nM), combined for 90 s at a flow rate of 50 μL/min and dissociated for 500 s.
(§3) At the end of each round of experiments, 3 M MgCl₂ solution was used to rinse at a flow rate of 30 μL/min for 30 s, and the captured antibody was removed along with the antigen to complete the regeneration of the chip. The raw data were analyzed using Biacore Insight Evaluation Software (version 3.0.12.15655) software and (1:1) Langmuir model was fit to the data. Compared with the anti-NKp46 humanized antibody and the corresponding chimeric antibody, the affinity to the human NKp46 antigen protein is mostly maintained.

The target in assay [6] is T1, human NKp46 (full length, on cells). Put plainly: cell-based or functional assay.
Assay [7] deals with T4, Human NKp46 antigen for immunization, screening, and testing (Kactus, NKP-HM146) (human, UniProt O76036 22-255).
T4 construct: Bought protein; also called human NKp46 antigen protein; human NKp46 protein
Put plainly: SPR (Biacore 8K), antibody captured on anti-human Fc, NKp46 as analyte, 1:1 fit. The procedure: Human NKp46 was diluted in two-fold to a serial concentration (400 nM-3.125 nM), then combined for 90 s at a flow rate of 50 μL/min, and dissociated for 500 s.
as §3
In general terms: In SPR one partner is held on a chip, and binding of the other changes the refractive index at the surface.

Like-named read-outs stand apart in the source and are kept apart here.

T2 sequence (Q95JB9 22-306): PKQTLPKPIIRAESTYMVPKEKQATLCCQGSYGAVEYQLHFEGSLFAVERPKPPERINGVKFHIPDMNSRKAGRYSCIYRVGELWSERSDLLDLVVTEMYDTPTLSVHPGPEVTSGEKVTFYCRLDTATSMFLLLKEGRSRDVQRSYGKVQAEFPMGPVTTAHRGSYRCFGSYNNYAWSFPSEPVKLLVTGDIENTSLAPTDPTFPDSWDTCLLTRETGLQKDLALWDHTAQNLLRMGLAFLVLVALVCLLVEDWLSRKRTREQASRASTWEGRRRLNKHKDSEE
T1 sequence (O76036 22-304 Q82K): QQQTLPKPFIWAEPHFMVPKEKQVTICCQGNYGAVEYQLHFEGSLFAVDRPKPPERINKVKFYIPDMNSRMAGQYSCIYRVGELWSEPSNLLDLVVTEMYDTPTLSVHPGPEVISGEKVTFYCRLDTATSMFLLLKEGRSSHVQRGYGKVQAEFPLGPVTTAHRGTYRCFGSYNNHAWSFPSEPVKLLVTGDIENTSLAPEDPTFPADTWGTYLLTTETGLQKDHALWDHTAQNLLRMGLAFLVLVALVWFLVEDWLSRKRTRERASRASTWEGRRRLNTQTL
T4 sequence (O76036 other isoform, or with tags, fused parts or gaps limits assumed): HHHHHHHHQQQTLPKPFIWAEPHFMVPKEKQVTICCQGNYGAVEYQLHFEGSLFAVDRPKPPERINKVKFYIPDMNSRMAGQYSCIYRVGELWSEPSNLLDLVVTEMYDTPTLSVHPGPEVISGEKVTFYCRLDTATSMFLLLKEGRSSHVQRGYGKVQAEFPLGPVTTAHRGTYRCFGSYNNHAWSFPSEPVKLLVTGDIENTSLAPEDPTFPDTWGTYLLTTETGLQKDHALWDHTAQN
T3 sequence (Q95JB9 other isoform, or with tags, fused parts or gaps limits assumed): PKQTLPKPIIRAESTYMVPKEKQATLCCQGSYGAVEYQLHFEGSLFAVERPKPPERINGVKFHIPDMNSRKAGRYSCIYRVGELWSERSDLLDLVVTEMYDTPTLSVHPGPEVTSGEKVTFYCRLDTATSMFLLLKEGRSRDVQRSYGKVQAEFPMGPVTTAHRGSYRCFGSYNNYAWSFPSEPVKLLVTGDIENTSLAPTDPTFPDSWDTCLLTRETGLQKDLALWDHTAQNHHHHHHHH
cynomolgus monkey NKp46 (full length, on cells) (cynomolgus monkey), sequence (Q95JB9 22-306): as the sequence (Q95JB9 22-306) above

Take “Anti-HEL human IgG1 LALA (Biointron, Cat. number B109802) (antibody)”: the Top MFI in assay [1] worked out at 223; in assay [1] (record 2), 98; in assay [2] it was 86; in assay [3] it was 118.

B1: H2-PA31 humanized antibody (antibody, human IgG1, V domains shown)
VH: EVQLVESGGGLVQPGGSLRLSCAVSGRTFSRLPMGWFRQAPGKGLEFVAAISWSSSTTYYADSVKGRFTISRDNSKNTAYLQMNSLRAEDTAVYYCAAVGGSLDYSATVVYTAARAYADWGQGTLVTVSS
notes: not shown: constant region of human IgG1
For the molecule B1, in assay [4], the EC50 (usually the concentration that produces a half-maximal response) is 2.11 nM and the “Top MFI” value stood at 3270. Also, in assay [1], the EC50 amounted to 0.203 nM and the “Top MFI” value was determined as 5940. In addition, in assay [5], binding was characterised by a dissociation constant (Kd) of 7.69 nM; the koff (commonly the rate constant with which the complex falls apart) was determined as 0.000596 s⁻¹; the on-rate (kon) (as a rule, the second-order rate constant of association) was determined as 77500 M⁻¹ s⁻¹. In assay [6], the “EC50 of NK cell activation (CD107a-positive NK cells, plate-coated antibody)” value (“EC50 of NK cell activation” for short) was determined as 0.63 nM and the “Top mean fluorescence intensity (Top MFI), NK cell activation (CD107a)” value (“Top mean fluorescence intensity” below) turned out to be 35.3. Besides, in assay [7], the Kd (in general, the constant that tells how readily two partners part at equilibrium) stood at 10.9 nM; the koff was determined as 0.000959 s⁻¹; the kon came out at 87800 M⁻¹ s⁻¹.

B2: H2-PA45 humanized antibody (antibody, V domains shown)
VH: EVQLVESGGGLVQPGGSLRLSCAASGRTFSRLPMAWFRQAPGKGLEFVAAISWSGGSTYYADSMKGRFTISRDNSKNTAYLQMNSLRAEDTAVYYCAAVGDSAPYSATIVYTDARAYAYWGQGTLVTVSS
notes: as for B1
Turning to B2, in assay [4], a half-maximal response (EC50) required 2.76 nM and the “Top MFI” value is 3590. In addition, in assay [1], the EC50 turned out to be 0.274 nM and the “Top MFI” value worked out at 5610. In assay [5], the Kd was 7.34 nM, the koff amounted to 0.000563 s⁻¹ and the kon is 76700 M⁻¹ s⁻¹. Also, in assay [6], the “EC50 of NK cell activation” value is 0.75 nM and the “Top mean fluorescence intensity” value is 39.1. In assay [7], the dissociation constant (Kd) is 24.1 nM, the off-rate constant (koff) turned out to be 0.00154 s⁻¹ and the kon was 63800 M⁻¹ s⁻¹.

B3: H2-PA27 humanized antibody (antibody, human IgG1, V domains shown)
VH: QVQLVESGGGVVQPGRSLRLSCAASGRTESWYRMGWFRQAPGKGLEVVARISGDTNIKYYAGSVKGRFTISRDNSKNTLYLQMSSLRAEDTAVYYCAADRTGATWDYWGQGTLVTVSS
notes: as for B1
In the case of B3, in assay [4], the EC50 was 0.069 nM and the “Top MFI” value was 3800. Moreover, in assay [1], the midpoint of the response, the EC50, lay at 0.153 nM and the “Top MFI” value stood at 6940. In assay [5], this molecule came in with a dissociation constant (Kd) of 23.4 nM, an off-rate (koff) of 0.0059 s⁻¹ and a kon of 252000 M⁻¹ s⁻¹. Also, in assay [6], the “EC50 of NK cell activation” value was more than 20 nM and the “Top mean fluorescence intensity” value was found to be 14.1. In assay [7], this molecule displayed a Kd of 22.1 nM, a koff of 0.00216 s⁻¹ and a kon of 97700 M⁻¹ s⁻¹.

B4: H1-PC11 humanized antibody (antibody, human IgG1, V domains shown)
VH: EVQLVESGGGLVQPGGSLRLSCAASPYSANSFSMAWFRQAPGKGLEGVACIQAESGSTNVAPSVKGRFTISQDNSKNTLYLQMNSLRAEDTAVYYCAAFKRNVGGCELRPEHWRFWGQGTLVTVSS
notes: as for B1
Take B4: in assay [4], the response was half-maximal at 0.345 nM (EC50) and the “Top MFI” value turned out to be 3260. Moreover, in assay [1], the EC50 turned out to be 0.389 nM and the “Top MFI” value was found to be 6710. In assay [5], binding was characterised by a dissociation constant (Kd) of 115 nM, the koff turned out to be 0.00589 s⁻¹ and the kon was determined as 51300 M⁻¹ s⁻¹. In assay [6], the “EC50 of NK cell activation” value came to 0.85 nM and the “Top mean fluorescence intensity” value worked out at 21. Also, in assay [7], binding was put at a Kd of 6.05 nM, the koff amounted to 0.000307 s⁻¹ and the on-rate (kon) stood at 50800 M⁻¹ s⁻¹.

The values are drawn from patent publication US20240141038A1 (SHANGHAI QILU PHARMACEUTICAL RESEARCH AND DEVELOPMENT CENTRE, published 2024).
